According to patent EP1674110A1 (NOVO NORDISK A/S, dated 2000):
Substitutions are numbered along the chain they refer to. Names may count otherwise. Each block holds one binder with its values, some of them ahead of it.

How the values were obtained:
[1] = target: T1, bovine pancreatic trypsin inhibitor (bovine, UniProt P00974 36-93); assay: scintillation proximity assay with 125I-BPTI
[2] = target: T1, bovine pancreatic trypsin inhibitor; assay: not described

B1: native human heparin-binding protein (other)
chain: IVGGRKARPRQFPFLASIQNQGRHFCGGALIHARFVMTAASCFQSQNPGVSTVVLGAYDLRRRERQSRQTFSISSMSENGYDPQQNLNDLMLLQLDREANLTSSVTILPLPLQNATVEAGTRCQVAGWGSQRSGGRLSRFPRFVNVTVTPEDQCRPNNVCTGVLTRRGGICNGDGGTPLVCEGLAHGVASFSLGPCGRGPDFFTRVALFRDWIDGVLNNPGP
notes: also called HBP; hHBP
binding result [1]: binds

B2: [R23S,F25E]HBP (other)
chain: B1 chain with R23S, F25E
notes: Expressed in sf9 insect cells; also called [R23S,F25E]HBP mutant
binding result [1]: binds

Now from value to binder:

binding result [1]: no binding
B3: [G175Q]HBP (other)
chain: B1 chain with G175Q
notes: also called [G175Q]HBP mutant

binding result [2]: no binding
B4: HBP mutant (G175N) (other)
chain: B1 chain with G175N
